Values of other authors as cited in article PMC6525395.
pKd: −log10 of the molar value.

Target: IL-6Rα (Homo sapiens) (UniProt P08887)
Sequence of UniProt P08887 (P08887 20-355): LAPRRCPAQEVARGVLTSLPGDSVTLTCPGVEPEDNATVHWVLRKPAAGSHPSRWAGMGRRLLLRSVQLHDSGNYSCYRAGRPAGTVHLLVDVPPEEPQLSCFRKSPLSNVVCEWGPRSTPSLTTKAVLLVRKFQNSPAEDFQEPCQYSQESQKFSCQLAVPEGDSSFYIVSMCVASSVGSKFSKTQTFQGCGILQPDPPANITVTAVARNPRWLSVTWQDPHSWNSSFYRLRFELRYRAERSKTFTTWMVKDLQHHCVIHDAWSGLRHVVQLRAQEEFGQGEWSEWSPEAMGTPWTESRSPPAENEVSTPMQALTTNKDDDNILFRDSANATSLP

pKd: 9.30
Substance: IL-6 (from UniProt P05231)
